Measured values reported in the RNAGym collection of RNA variant scans (doi:10.7554/elife.80360).

B1: Hairpin Ribozyme (parent)
chain: GUCCUCUUUCACGUGCGCGUGAAAGAGAGAAGUGAACCAGAGAAACACACGUUGUGGUAUAUUACCUGGUA

Variants of: B1
Test: self-cleavage, relative activity (ratio to wild type); higher = more cleavage; co-transcriptional

Row | Variant | self-cleavage
1 | U9A C12G | 0.512
2 | U9A C12A | 0.377
3 | U9A A30G | 0.148
4 | U9A A30C | 0.172
5 | U7C G40C | 0.156
6 | U9A C16U | 0.624
7 | U9A C16A | 0.626
8 | U7C A26C | 0.275
9 | U7C A26G | 0.667
10 | U7G A36C | 0.669
11 | U8G U9G | 0.82
12 | U8G U9C | 0.595
13 | U8C C46G | 0.188
14 | U7C A64U | 0.0591
15 | U7G G29U | 0.136
16 | U7G G34U | 1.22
17 | U7G U62C | 0.0811
18 | U7G U62A | 0.101
19 | U8C U67A | 0.161
20 | U9A A24G | 0.461
21 | U7C G57U | 0.213
22 | U8C G42C | 0.187
23 | U8C G56A | 0.153
24 | U9A A49G | 0.395

Row | Variant | self-cleavage
25 | U7G C12A | 0.732
26 | U7G C12U | 0.753
27 | U8C C48G | 0.155
28 | U8C C48U | 0.272
29 | U7C A59U | 0.178
30 | U8C C18A | 0.787
31 | U8C C18U | 0.779
32 | U9A | 0.691
33 | U7G G25U | 0.17
34 | U7G G25C | 0.253
35 | U7G G13A | 0.704
36 | U8C A26C | 0.316
37 | U8C A26G | 0.544
38 | U8C G54U | 0.453
39 | U8C G54A | 0.378
40 | U8A A49C | 0.165
41 | U8A A49G | 0.366
42 | U8A A49U | 0.148
43 | U8G G54A | 0.456
44 | U8G G54C | 0.313
45 | U8G U53C | 0.954
46 | U8G U53A | 0.567
47 | U8A U67A | 0.196
48 | U8A U67C | 0.186

Row | Variant | self-cleavage
49 | U8G U20C | 0.425
50 | U8C A28C | 0.691
51 | U8C A28U | 0.693
52 | U8C A71C | 1.11
53 | U8C A71U | 0.569
54 | U8G G68C | 0.183
55 | U8A U52A | 0.658
56 | U8A U52G | 0.518
57 | U8C A47G | 0.147
58 | U7G G69C | 0.191
59 | U7G G69A | 0.398
60 | U7G G69U | 0.166
61 | U8C U58G | 0.327
62 | U7C G25A | 0.306
63 | U7C G25U | 0.494
64 | U8C A11G | 0.458
65 | U7C A47U | 0.0995
66 | U7C A47C | 0.205
67 | U8A A47G | 0.187
68 | U8C C12U | 0.566
69 | U8C C12A | 0.164
70 | U9A A11G | 0.473
71 | U9A A11C | 0.478
72 | U9A A11U | 0.541

Row | Variant | self-cleavage
73 | U8G G17A | 0.648
74 | U8C A35U | 0.679
75 | U8C A35C | 0.876
76 | U7C G56U | 0.188
77 | U7G A26C | 0.0432
78 | U7C G27U | 0.222
79 | U7C A41G | 0.845
80 | U8G U52C | 0.617
81 | U8A A30G | 0.13
82 | U8C A36U | 0.393
83 | U8C A36C | 0.671
84 | U8C G68U | 0.154
85 | U8C G68A | 0.186
86 | U9A A45C | 0.154
87 | U9A A45U | 0.152
88 | U8A A43G | 0.13
89 | U8A U53G | 0.59
90 | U8A U53A | 0.763
91 | U8C A22U | 0.344
92 | U9A C18G | 0.617
93 | U9A C18A | 0.855
94 | U7C A36C | 0.679
95 | U8G U70A | 0.715
96 | U8C G15A | 0.743

Row | Variant | self-cleavage
97 | U8G A41C | 0.801
98 | U7C U20G | 0.751
99 | U8G U63A | 0.245
100 | U7C A31C | 0.112
101 | U8G G27U | 0.289
102 | U7C A39U | 0.465
103 | U7C A39G | 0.263
104 | U7C A39C | 0.583
105 | U7G G19A | 0.618
106 | U7G U63C | 0.143
107 | U8A U20G | 0.711
108 | U8G A36G | 0.76
109 | U8A A28G | 0.684
110 | U8C G69C | 0.164
111 | U8G A39C | 0.406
112 | U8G A39U | 0.288
113 | U8C A45C | 0.065
114 | U8C A45U | 0.257
115 | U7G A59C | 0.0534
116 | U7C C50A | 0.209
117 | U7C C50G | 0.229
118 | U8G A47G | 0.0909
119 | U7C G54U | 0.242
120 | U7C G54C | 0.683

Row | Variant | self-cleavage
121 | U8C U14A | 0.51
122 | U8C U14C | 0.802
123 | U8C U63C | 0.132
124 | U8C G40C | 0.0998
125 | U8A U14A | 0.642
126 | U8A U14G | 0.401
127 | U7C U62A | 0.288
128 | U7G C18G | 0.739
129 | U7G C18U | 1.07
130 | U8C G27U | 0.158
131 | U7C G51C | 0.489
132 | U7C G51U | 1.1
133 | U8G C12G | 0.146
134 | U7G G15U | 0.955
135 | U8C G19U | 0.582
136 | U8G C50A | 0.227
137 | U8G C50G | 0.125
138 | U8C C65U | 0.166
139 | U8G G19A | 0.533
140 | U8G G19U | 0.332
141 | U8C U62A | 0.192
142 | U8C U62G | 0.144
143 | U8C U62C | 0.201
144 | U8C G13C | 0.834

Row | Variant | self-cleavage
145 | U8A U70G | 0.585
146 | U8A U70C | 0.816
147 | U7G C48G | 0.153
148 | U8C U20C | 0.184
149 | U7C C66U | 0.542
150 | U8C A23G | 0.709
151 | U7G A47G | 0.174
152 | U8G G69C | 0.323
153 | U8G G69A | 0.282
154 | U7C G32A | 0.0904
155 | U8A A26C | 0.334
156 | U8A A26U | 0.421
157 | U8C G57C | 0.172
158 | U7C A43G | 0.0623
159 | U7C C12A | 0.516
160 | U9A A31G | 0.313
161 | U8G U60G | 0.51
162 | U8A G54U | 0.524
163 | U8G U58G | 0.635
164 | U8G U58A | 0.665
165 | U9A A71C | 1.01
166 | U7C C38A | 0.185
167 | U7C C38U | 0.211
